Laboratory results: US20230049752A1 (University of California, published 2023)
Numbering of substitutions follows the chain as printed.

T1: Claudin-9 (CLDN9) (human, UniProt O95484 1-217)
T1 construct: whole, on cells; also called CLDN9-GFP; CLDN9-mGFP
T1 sequence (looked up): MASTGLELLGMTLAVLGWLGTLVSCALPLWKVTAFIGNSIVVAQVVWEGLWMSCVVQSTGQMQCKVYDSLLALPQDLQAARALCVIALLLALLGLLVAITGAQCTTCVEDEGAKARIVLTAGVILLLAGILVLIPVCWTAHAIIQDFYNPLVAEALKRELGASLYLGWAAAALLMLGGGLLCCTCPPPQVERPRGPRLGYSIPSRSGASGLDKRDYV

T2: mouse Claudin-6 (CLDN6) (mouse, UniProt Q9Z262 1-219)
T2 construct: whole, on cells; GFP fusion on engineered HEK293T cells; also called Mouse CLDN6; murine CLDN6
T2 sequence (looked up): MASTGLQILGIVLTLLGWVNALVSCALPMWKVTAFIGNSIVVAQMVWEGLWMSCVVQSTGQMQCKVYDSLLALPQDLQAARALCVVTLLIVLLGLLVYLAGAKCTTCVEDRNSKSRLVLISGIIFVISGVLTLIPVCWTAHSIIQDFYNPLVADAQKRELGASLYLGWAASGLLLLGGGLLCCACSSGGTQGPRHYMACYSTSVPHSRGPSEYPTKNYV

B1: AB1-6 (antibody, V domains shown)
VH: QVQLVQSGAEVKKPGASVKMSCKASGYTFTTYTMHWVRQAPGQGLEWIGFINPSSGYTDYAQKFQGRVTLTADTSTSTVYMELSSLRSEDTAVYYCANGDYYVAYWGQGTLVTVSS
VL: DIQMTQSPSSLSASVGDRVTITCTASSSVSSTYFHWYQQKPGKAPKLLIYSTSNLASGVPSRFSGSGSGTDYTLTISSLQPEDFATYYCHQYHRSPLTFGQGTKLEIK
notes: humanized
B2: AB1 (antibody, V domains shown)
VH: QVQLQQSAAELARPGASVKMSCKASGYTFTTYTMHWVKQRPGQGLEWIGFINPSSGYTDYNQKFKDRTTLTADKSSSTVYMQLSSLTSEDSAVYYCANGDYYVAYWGQGTLVTVSA
VL: QIVLTQSPAIMSASLGERVTMTCTASSSVSSTYFHWYQQKPGSSPKLWIYSTSNLASGVPRRFSGSASGTSYSLTISSMEAEDAATYYCHQYHRSPLTFGAGTKLELK
notes: full-length IgG (ExpiCHO)
B3: AB2 (antibody, V domains shown)
VH: EVKLEESGGGLVQPGGSMKLSCVASGFTFSDYWMNWVRQSPEKGLEWVAQIRLKSDNYATHYAESVKGRFTISRDDSKRSVYLQMNNLRAEDTGTYYCNDGPPSGCWGQGTTLIVSS
VL: DIQMTQSPASLSASVGETVTITCRISENIYSYLAWYQQKQGKSPQLLVYNAKILVEGVPSRFSGSGSGTQFSLKINSLQPEDFGNYYCQHHYTVPWTFGGGTKLEIK
notes: full-length IgG (ExpiCHO)
B4: AB3 (antibody, V domains shown)
VH: B3 VH with D31N
VL: B3 VL
notes: full-length IgG (ExpiCHO)
B5: AB4 (antibody, V domains shown)
VH: QVQLQQSGAELARPGASVKMSCKASGYTFTSYTMHWIKQRPGQGQEWIGYINPSSTYTHYIKKFKDKATLTADKSSSTAYMQLRSLTSEDSAVYYCSRGELGGFAYWGQGTLVTVSA
VL: DVVMTQTPLSLPVSLGDQASISCRSSQSLVHSDGNTYLNWYLQKPGQSPKLLIYKVSNRFSGVPDRFSGSGSGTDFTLKIRRVEAEDLGVYFCSQSTHVPYTFGGGTKLEIK
notes: full-length IgG (ExpiCHO)
B6: AB9 (antibody, V domains shown)
VH: EVQLQQSGPELVKPGASVKMSCKASGYRFTDYNMHWVKQSHGKSLEWIGYINPNNGGTNYNQNFKGKATLTVNKSSSTAYMELRSLTSEDSAAYYCARDYLYFFDCWGQGTTLTVSS
VL: DIQMTQSPASQSASLGESVTITCLASQTIGTWLAWYQQKPGKSPQLLIYAAASLADGVPSRFSGSGSGTRFSFKISSLQAEDFVSYYCQQLYSIPRTFGGGTKLEIK
B7: AB10 (antibody, V domains shown)
VH: QIQLVQSGPALKKPGETVKISCKASGYTFTDYSMHWIKQAPGKGLKWMGWISTETGEPTYADGFKGRFDFSLETSADTAYLSINNLTNEDTATYFCTRGLWSSFAYWGQGTLVTVSA
VL: B5 VL with S25A, D33N, N39H, Y41F, G73R, R81S, S96I
notes: full-length IgG (ExpiCHO)
B8: AB13 (antibody, V domains shown)
VH: QVQLQQSGAELVRPGTSVKVSCKASGYAFSNYLIEWVKQRPGQGLEWIGVINPGSGGTNYNEKFKGKATMTADKSSSTAYMHLSNLTSEDSVVYFCARSYFGRSYPYTMDYWGQGTSVTVSS
VL: EIVLTQSPTTMAASPGEKITITCSASSSISSNYLHWYQQKPGFSPKLLIYRTSNLASGVPARFSGSGSGTSYSLTIGTMEAEDVATYYCQQGSSIPLTFGAGTKLELK
B9: AB14 (antibody, V domains shown)
VH: QVQLQQSGPELVRPGVSVKISCKGSGYTFTDYAMHWVKQSHAKSLEWIGVISTYSGNTNYNQKFQDKATMTVDKSSSTAYMALARLTSDDSAIYYCARRGDYSLYAMDYWGQGTSVTVSS
VL: DIVLTQSPASLAVSLGQRATISCKASQSVDYDGDNYVNWYQQKVGQPPKLLISAASNLESGIPARFSGSGSGTDFTLNIHPVEEEDAATYYCQQSNEDPFTFGSGTKLEIK
B10: AB17 (antibody, V domains shown)
VH: QVQLQQSGAELAKPGASVKMSCKASGYTFTGYWMHWVKQRPGQGLEWLGYINPSTGYTESNQKFKDKATLTADKSSTTAYMQLRSLTPEDSAVYYCAREGITTVLVDYWGQGTTLTVSS
VL: B2 VL with T32S, F34L, R61A, A67G, L97P
B11: AB18 (antibody, V domains shown)
VH: QVQLKQSGPELEKPGASVKISCKASGYSFTGYNMNWVKQSNGKSLEWIGNIDPYYGGSTYNQKFTGKATLTVDKSSSTAYMQLKSLTSEDSAVYYCARERSGYVFSAMDYWGQGTSVTVSS
VL: NIMMTQSPSSLAVSAGEKVTMSCKSSQSVLFSSNQKNYLAWYQQKPGQSPRLLIYWASTRESGVPDRFTGSGSGTDFTLTISNVQAEDLAVYYCHQYLSSRTFGAGTKLELK
B12: AB19 (antibody, V domains shown)
VH: EVQLQQSGPELVKPGGSMKISCKASGYSFTGYTMNWVKRSHGKNLEWIGLINPYNGVTTYNQNFKGKATLAVDKSSSTAYMELLGLTSEDSAVYYCTRDPLYYGYRDSTMDYWGQGTSVTVSS
VL: B11 VL

These binders were tested against human Claudin-6 (CLDN6) (human) (UniProt P56747) (assay: FACS, 0.3 ug Ab, ARK2 cells (2nd Ab only 1351.21)).
B1 showed an FACS fluorescence of 2820.

Each binder was assayed against human Claudin-6 (CLDN6) (human) (UniProt P56747) (assay: FACS, 1.5 ug Ab, ARK2 cells (2nd Ab only 1351.21)).
B1 was tested, and the FACS fluorescence was 7740.

What follows are binders tested against human Claudin-6 (CLDN6) (human) (UniProt P56747) (assay: FACS, 1.5 ug Ab, OVCA429 cells (2nd Ab only 885.77)).
Binder B1 has an FACS fluorescence of 29900.

Each binder was assayed against human Claudin-6 (CLDN6) (human) (UniProt P56747) (assay: FACS titration of labelled mAb on HEK293T-CLDN6-mGFP cells).
B1 showed an EC50 of 5000 nM. B2 showed an EC50 of 109 nM. In the case of B3, the EC50 is reported as 182 nM. B4 showed an EC50 of 604 nM. In the case of B5, the EC50 is reported as 17 nM. For B6, the EC50 was 2670 nM. Work on B7 yielded an EC50 of 2760 nM. B8 showed an EC50 of 5000 nM. Work on B9 yielded an EC50 of 5000 nM. Binder B10 has an EC50 of 2650 nM. Work on B11 yielded an EC50 of 5000 nM. Binder B12 has an EC50 of 5000 nM.

These binders were tested against human Claudin-6 (CLDN6) (human) (UniProt P56747) (assay: FACS titration of labelled mAb on ARK2 cells (endogenous CLDN6+)).
B1 showed an EC50 of 5000 nM. Binder B2 has an EC50 of 105 nM. Binder B3 has an EC50 of 1360 nM. In the case of B4, the EC50 is reported as 1650 nM. B5 showed an EC50 of 48 nM. Binder B6 has an EC50 of 1140 nM. In the case of B7, the EC50 is reported as 2140 nM. In the case of B8, the EC50 is reported as 1150 nM. In the case of B9, the EC50 is reported as 1300 nM. B10 showed an EC50 of 5000 nM. B11 showed an EC50 of 1350 nM. B12 was tested, and the EC50 was 5000 nM.

The binders below were run against CLDN3/4 (endogenous on LS513 or MCF7 cells) (assay: FACS titration of labelled mAb on MCF7 cells (endogenous CLDN3/4+)).
Work on B1 yielded an EC50 of 5000 nM. Work on B2 yielded an EC50 of 5000 nM. Binder B3 has an EC50 of 5000 nM. Work on B4 yielded an EC50 of 5000 nM. For B5, the EC50 was 653 nM. Work on B6 yielded an EC50 of 5000 nM. With B7 the EC50 was 5000 nM. Work on B8 yielded an EC50 of 5000 nM. In the case of B9, the EC50 is reported as 546 nM. In the case of B10, the EC50 is reported as 5000 nM. B11 was tested, and the EC50 was 5000 nM. B12 gave an EC50 of 5000 nM.

The binders below were run against CLDN3/4 (endogenous on LS513 or MCF7 cells) (assay: FACS titration of labelled mAb on LS513 cells (endogenous CLDN3/4+)).
In the case of B1, the EC50 is reported as 5000 nM. With B2 the EC50 was 5000 nM. B3 showed an EC50 of 5000 nM. B4 gave an EC50 of 5000 nM. B5 was tested, and the EC50 was 730 nM. In the case of B6, the EC50 is reported as 1040 nM. Binder B7 has an EC50 of 1950 nM. In the case of B8, the EC50 is reported as 1590 nM. B9 showed an EC50 of 1160 nM. With B10 the EC50 was 5000 nM. With B11 the EC50 was 5000 nM. B12 was tested, and the EC50 was 5000 nM.

What follows are binders tested against human Claudin-6 (CLDN6) (human) (UniProt P56747) (assay: FACS titration of labelled mAb on OVCA429 cells (endogenous CLDN6+)).
With B1 the EC50 was 5000 nM. Work on B2 yielded an EC50 of 84 nM. B3 was tested, and the EC50 was 912 nM. With B4 the EC50 was 1100 nM. B5 showed an EC50 of 168 nM. B6 was tested, and the EC50 was 1160 nM. B7 showed an EC50 of 2470 nM. B8 showed an EC50 of 2290 nM. With B9 the EC50 was 1660 nM. B10 gave an EC50 of 5000 nM. For B11, the EC50 was 2440 nM. In the case of B12, the EC50 is reported as 5000 nM.

The binders below were run against T1, Claudin-9 (CLDN9) (assay: FACS titration of labelled mAb on HEK293T CLDN9-mGFP cells).
Method: (§1) CLDN6 antibodies were tested from 0.32 nM to 1000 nM (serial dilution 1:5, 6 points) in a 50 μl volume with 150,000 cells system.
(§2) CLDN6-expressing cells were used in FACS assays to determine the CLDN6 antibody's ability to bind to CLDN6 on the surface of cells and to cross-react with other CLDN family members. HEK293 T cells engineered to express human CLDN6 fused to GFP, mouse CLDN6 fused to GFP, CLDN9-GFP, CLDN4-GFP, or CLDN3-GFP, or GFP alone (without CLDN6) were used as artificial models of CLDN6 expression.
(§3) For each type of cell tested and for each mAb, cells were detached from the surface of the culture flasks by EDTA (instead of trypsin) in order to protect the cell surface proteins. The detached cells were then incubated with Alexa Fluor®-labeled CLDN6 mAbs for 30 min in the dark on ice at a pre-determined concentration. […] After washing, the cells were read by a BD Accuri™ Flow Cytometer C6 to detect antibody-antigen protein binding in channel FL4H. Each antibody was tested at varied concentrations to establish a dose-fluorescence curve. […] Cross-reactivity data were obtained using a similar methodology, but with cells having a different expression profile for CLDN6, CLDN3, CLDN4 and CLDN9.
B2 showed an EC50 of 2760 nM. Work on B5 yielded an EC50 of 1860 nM. For B7, the EC50 was 246 nM.

Each binder was assayed against human Claudin-6 (CLDN6) (human) (UniProt P56747) (assay: FACS, 0.3 ug Ab, 293T clone expressing human CLDN6 (2nd Ab only 768.07)).
B1 showed an FACS fluorescence of 120000.

What follows are binders tested against human Claudin-6 (CLDN6) (human) (UniProt P56747) (assay: FACS, 1.5 ug Ab, 293T clone expressing human CLDN6 (2nd Ab only 768.07)).
Binder B1 has an FACS fluorescence of 227000.

What follows are binders tested against T2, mouse Claudin-6 (CLDN6) (assay: FACS titration of labelled mAb on HEK293T mouse CLDN6-mGFP cells).
Method: as §1, §2, §3
With B2 the EC50 was 72 nM. In the case of B3, the EC50 is reported as ≥ 5000 nM. For B4, the EC50 was 2490 nM. With B5 the EC50 was ≥ 5000 nM.

These binders were tested against T2, mouse Claudin-6 (CLDN6) (assay: FACS, 293T clone expressing mouse CLDN6, dose not stated (2nd Ab only 1061.72)).
Method: Two doses (1.5 μg or 0.3 μg) of the humanized antibodies were tested for binding to either human CLDN6 or murine CLDN6 which proteins were expressed by engineered 293T clones.
B1 was tested, and the FACS fluorescence was 77600.
